Test results taken from patent US7906477B2 (Genspera, Inc., priority 2002, dated 2011).
pKd: −log10 of the molar value. Square brackets hold non-standard residues; d marks the D form. Ends that are not written are not given here. Peptide text beside a SMILES is read from it. Tyr(3-NO2) = N[C@@H](Cc1ccc(O)c([N+](=O)[O-])c1)C(=O)O; 2Abz = Nc1ccccc1C(=O)O

Tests used:
[1] = target: sarcoplasmic reticulum (SR) and endoplasmic reticulum (ER) Ca^2+-ATPase (SERCA) pump; conditions: read-out: apparent dissociation constant for TG from the SERCA pump; cited from earlier work
[2] = plasma stability of acetylated versus non-acetylated peptide (plasma species not stated); type: in vitro ADME; conditions: plate-reader assay and analytical HPLC
Protocol: Mouse plasma was obtained from cardiac puncture of anesthetized mice prior to euthanization by CO2 overdose according to protocols approved by the Johns Hopkins Animal Care and Use Committee. Human plasma was obtained from discarded, pooled, and unlabeled clinical samples. Plasma was diluted to 50% in Tris buffer (50 mM Tris-HCl, 100 mM NaCl, pH 7.8). To this, test peptides/prodrugs were added to 250 or 500 μM final concentration. After the incubation period, one volume (200 μl) of acetonitrile was added to precipitate the protein fraction and the tube was centrifuged at 14,000 for 2 min. The supernatant was analyzed by C18-HPLC and the collected peaks were analyzed by MALDI-TOF as described above.
To determine whether merely the acetylation of the N-terminus of the hK2 prodrug contributed to its stability, an acetylated fluorescence-quenched peptide (ac-Y′GKAFRRLGK′; SEQ ID NO:18) was synthesized and compared its plasma stability with that of the non-acetylated peptide (Y′GKAFRRLGK′; SEQ ID NO:21). […] Analytical HPLC indicated the same result. […] The paradoxical stability of the hK2 prodrug (ac-GKAFRR-L12ADT; SEQ ID NO:41) compared to the peptide substrates may also be due to binding of the L12ADT moiety to plasma proteins that make it inaccessible to the plasma protease activity that is responsible for hydrolysis of unconjugated (and unbound) peptides.

Plasmin = Plasmin (Homo sapiens, UniProt P00747); experiment: hydrolysis by tumor-associated proteases: Plasmin; type: biochemical
From the text: (§1) Due to their short length, the hK2 peptide substrates could potentially be substrates for other trypsin-like proteases. Although a rather specific protease substrate can be defined with 7 amino acids, there is a lack of higher order structural information by which natural protein substrates normally impose high specificity. Cancer progression is often correlated with increased protease activity (Koblinsli, J. E. et al. (2000) Clin. Chim. Acta 291:113-135). These activities could be potentially beneficial since they could broaden the scope of applications for protease activated prodrugs. To test the hypothesis that other tumor-associated proteases could activate the prodrug, a number of known proteases (table 3), implicated in cancer progression were selected to determine if our lead substrate, GKAFRRL (SEQ ID NO:30) could be efficiently hydrolyzed by any of these proteases. For this analysis, the trypsin-like serine proteases plasmin and urokinase and cathepsins B and D were selected. Hydrolysis of both the fluorescence quenched peptide substrate and the TG-prodrug was analyzed. […] Plasmin, therefore, could be a valid target for selective activation of the GKAFRR-L12ADT (SEQ ID NO:44) prodrug in other types of cancer where plasmin activation may play an important role.

Cathepsin B = Cathepsin B (Homo sapiens, UniProt P07858); experiment: hydrolysis by tumor-associated proteases: Cathepsin B; type: biochemical
From the text: as §1

hK2 [3] = target: T1, hK2 (Homo sapiens, UniProt P20151); experiment: hydrolysis in the protease panel: hK2; type: biochemical; conditions: enzyme 1 μg/ml, substrate 500 μM; 1 = approximately 0.1% digestion in 1 hour
T1 construct: made in house
From the text: as §1

Cathepsin D = Cathepsin D (Homo sapiens, UniProt P07339); experiment: hydrolysis by tumor-associated proteases: Cathepsin D; type: biochemical
From the text: as §1

Urokinase = Urokinase (Homo sapiens, UniProt P00749); experiment: hydrolysis by tumor-associated proteases: Urokinase; type: biochemical
From the text: as §1

hK2 [4] = target: T1, hK2; experiment: hK2 hydrolysis of prodrug and non-fluorescent peptide by HPLC; type: biochemical; conditions: HPLC analysis
Protocol: FIG. 4 depicts HPLC analysis of the hydrolysis of the hK2 prodrug Ac-GKAFRR-L12ADT (SEQ ID NO:41) by hK2 ([…]) incubated in 50 mM Tris, 0.1 M NaCl, pH 7.8 at room temperature for 24 hours. The mass of each peak was confirmed by MALDI-TOF mass spectrometric analysis.
Fluorescent substrates were analyzed by means of a fluorescence plate-reader (ex=355 nm, em=460 nm). acGKAFRRL-12ADT (SEQ ID NO:41) and acGKAFRRLG (SEQ ID NO:43) were analyzed by HPLC and quantified by HLPC integration.
This putative hK2 prodrug was incubated with enzymatically active hK2 (4 μg/ml) to determine extent of hydrolysis over time. […] In 25 min, 50% was hydrolyzed and after 1 hour, more than 80% of the starting prodrug was hydrolyzed. The ratio of the products RL-12ADT:L-12ADT was 1:1.8, as determined by HPLC integration.

[5] = enzyme 1 μg/ml, substrate 500 μM, 1 = approximately 0.1% digestion in 1 hour

Cathepsin D, sequence (P07339 65-412, species assumed): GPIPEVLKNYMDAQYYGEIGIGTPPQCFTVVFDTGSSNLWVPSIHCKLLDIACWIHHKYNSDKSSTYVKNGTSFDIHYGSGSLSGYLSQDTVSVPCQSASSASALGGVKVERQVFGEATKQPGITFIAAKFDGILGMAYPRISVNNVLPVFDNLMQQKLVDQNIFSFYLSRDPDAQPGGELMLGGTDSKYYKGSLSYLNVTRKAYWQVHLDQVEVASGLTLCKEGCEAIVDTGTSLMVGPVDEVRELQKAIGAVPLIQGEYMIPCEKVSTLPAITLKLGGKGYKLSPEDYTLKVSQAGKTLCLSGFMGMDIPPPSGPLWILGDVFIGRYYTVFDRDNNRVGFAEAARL
Plasmin, sequence (P00747 581-810 limits assumed, species assumed): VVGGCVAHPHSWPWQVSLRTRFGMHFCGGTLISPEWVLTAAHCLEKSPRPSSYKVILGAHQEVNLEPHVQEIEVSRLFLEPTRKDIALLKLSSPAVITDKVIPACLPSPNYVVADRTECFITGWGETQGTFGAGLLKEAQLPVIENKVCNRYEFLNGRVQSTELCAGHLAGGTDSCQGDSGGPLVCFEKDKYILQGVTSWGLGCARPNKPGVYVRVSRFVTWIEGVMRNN
Plasmin, sequence (P00747 97-580 partner limits assumed, species assumed): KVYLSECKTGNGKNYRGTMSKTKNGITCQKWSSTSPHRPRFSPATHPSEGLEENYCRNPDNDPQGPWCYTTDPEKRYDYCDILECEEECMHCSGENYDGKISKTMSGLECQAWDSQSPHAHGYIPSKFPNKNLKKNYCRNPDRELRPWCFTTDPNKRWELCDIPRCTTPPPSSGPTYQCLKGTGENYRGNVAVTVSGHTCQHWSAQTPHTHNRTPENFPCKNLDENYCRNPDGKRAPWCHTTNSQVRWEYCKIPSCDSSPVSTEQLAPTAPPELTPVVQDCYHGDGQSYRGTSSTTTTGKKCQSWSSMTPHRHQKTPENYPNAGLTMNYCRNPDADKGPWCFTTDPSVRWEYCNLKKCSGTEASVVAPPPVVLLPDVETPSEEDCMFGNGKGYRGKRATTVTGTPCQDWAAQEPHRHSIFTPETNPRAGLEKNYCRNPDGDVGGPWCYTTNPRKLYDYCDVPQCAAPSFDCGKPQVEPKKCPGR
T1 sequence (P20151 25-261): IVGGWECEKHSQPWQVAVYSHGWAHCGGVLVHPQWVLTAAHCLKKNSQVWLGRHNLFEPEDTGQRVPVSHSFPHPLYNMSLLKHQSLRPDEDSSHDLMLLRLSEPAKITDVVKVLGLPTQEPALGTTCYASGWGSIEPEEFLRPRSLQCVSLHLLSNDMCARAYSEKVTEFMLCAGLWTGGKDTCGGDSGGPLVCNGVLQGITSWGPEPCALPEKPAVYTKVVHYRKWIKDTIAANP

For C/C=C(/C)C(=O)O[C@H]1C(C)=C2[C@H]([C@@H]1OC(=O)CCCCCCC)[C@@](C)(OC(C)=O)C[C@H](OC(=O)CCC)[C@@]1(O)[C@H]2OC(=O)[C@@]1(C)O [TG, Thapsigargin], the pKd [1] is listed as ≥ 11.66.

With CC(=O)N[C@@H](Cc1ccc(O)c([N+](=O)[O-])c1)C(=O)NCC(=O)N[C@@H](CCCCN)C(=O)N[C@@H](C)C(=O)N[C@@H](Cc1ccccc1)C(=O)N[C@@H](CCCNC(=N)N)C(=O)N[C@@H](CCCNC(=N)N)C(=O)N[C@@H](CC(C)C)C(=O)NCC(=O)N[C@@H](CCCCNC(=O)c1ccccc1N)C(=O)O [ac-Y′GKAFRRLGK′] (Ac-[Tyr(3-NO2)]GKAFRRLGK(2Abz)-OH) the “plasma hydrolysis compared with the non-acetylated peptide (in words)” value [2] was “completely identical”.

With “Abz-GKAFRRLY′: fluorescence quenched peptide substrate with the lead sequence GKAFRRL ([2Abz]GKAFRRL[Tyr(3-NO2)])” the “Relative hydrolysis rate, Plasmin” value (Plasmin; [5]) was 36, the “fold slower rate of hydrolysis by plasmin than by hK2” value (Plasmin; fluorescence quenched peptide substrate) was “more than 10 fold” and the “hydrolysis following incubation with Cathepsin B (in words)” value (Cathepsin B) was “No appreciable hydrolysis”. The “Relative hydrolysis rate, Cathepsin B” value (Cathepsin B; [5]) was 1, the “Relative hydrolysis rate, hK2” value (hK2 [3]) was 353 and the “hydrolysis following incubation with Cathepsin D (in words)” value (Cathepsin D) was “No appreciable hydrolysis”. For the same compound, the “Relative hydrolysis rate, Cathepsin D” value (Cathepsin D; [5]) was 1, the “activity of Urokinase on the substrate (in words)” value (Urokinase) was “low activity” and the “Relative hydrolysis rate, Urokinase” value (Urokinase; [5]) was 17.

With “ac-GKAFRRLG: acetylated non-fluorescence quenched peptide (Ac-GKAFRRLG)” the “hydrolysis by hK2 (in words)” value (hK2 [4]) was “rapidly hydrolyzed by hK2”.
